Data from US10562947B2, “Compositions and methods for preventing or treating diseases, conditions or processes characterized by aberrant fibroblast proliferation and extracellular matrix deposition” (MOERAE MATRIX, INC., priority 2011, dated 2020).

Tests used:
Experiment in all cases: Kinase Profiling Assay
Assay type in all cases: biochemical
Conditions in all cases: 100 μM peptide
IGF-1R(h) = target: T1, IGF-1R(h) (Homo sapiens, UniProt P08069)
T1 construct: purchased Millipore
In short: (§1)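 First, MK2 inhibitor peptides were applied to a panel of 266 human kinases; then each kinase's activity was measured in duplicate to assess off-target inhibition.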

PAK3(h) = PAK3(h) (Homo sapiens, UniProt O75914)
Sequence of PAK3(h) (O75914 whole entry): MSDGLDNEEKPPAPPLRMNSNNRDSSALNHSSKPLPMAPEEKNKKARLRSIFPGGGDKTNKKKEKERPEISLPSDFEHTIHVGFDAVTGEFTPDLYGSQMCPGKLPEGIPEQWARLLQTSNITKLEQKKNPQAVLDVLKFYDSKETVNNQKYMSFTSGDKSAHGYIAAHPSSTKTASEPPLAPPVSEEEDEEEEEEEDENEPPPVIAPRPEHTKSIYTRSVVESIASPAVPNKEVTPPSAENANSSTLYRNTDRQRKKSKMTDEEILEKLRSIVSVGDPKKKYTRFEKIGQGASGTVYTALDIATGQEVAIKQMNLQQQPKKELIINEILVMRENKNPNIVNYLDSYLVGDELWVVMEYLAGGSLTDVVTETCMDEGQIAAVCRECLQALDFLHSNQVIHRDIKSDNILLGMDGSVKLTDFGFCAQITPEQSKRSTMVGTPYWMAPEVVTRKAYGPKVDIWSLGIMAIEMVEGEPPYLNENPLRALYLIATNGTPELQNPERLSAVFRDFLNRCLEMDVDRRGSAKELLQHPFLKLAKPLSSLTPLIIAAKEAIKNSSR
In short: as §1

CK1γ3(h) = CK1γ3(h) (Homo sapiens, UniProt Q9Y6M4)
Sequence of CK1γ3(h) (Q9Y6M4 whole entry): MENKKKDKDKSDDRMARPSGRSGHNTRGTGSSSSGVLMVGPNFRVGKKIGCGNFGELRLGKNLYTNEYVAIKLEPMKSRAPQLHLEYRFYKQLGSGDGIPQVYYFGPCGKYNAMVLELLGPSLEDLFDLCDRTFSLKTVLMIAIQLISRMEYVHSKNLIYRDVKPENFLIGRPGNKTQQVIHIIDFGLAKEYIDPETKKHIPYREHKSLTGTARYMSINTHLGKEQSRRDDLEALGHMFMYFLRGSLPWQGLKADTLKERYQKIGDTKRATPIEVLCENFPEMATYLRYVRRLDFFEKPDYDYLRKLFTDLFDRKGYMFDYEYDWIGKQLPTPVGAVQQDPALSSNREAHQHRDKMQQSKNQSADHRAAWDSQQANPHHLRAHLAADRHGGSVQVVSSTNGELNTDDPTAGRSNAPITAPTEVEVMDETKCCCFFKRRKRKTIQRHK
In short: as §1

CK2α2(h) = CK2α2(h) (Homo sapiens, UniProt P19784)
Sequence of CK2α2(h) (P19784 whole entry): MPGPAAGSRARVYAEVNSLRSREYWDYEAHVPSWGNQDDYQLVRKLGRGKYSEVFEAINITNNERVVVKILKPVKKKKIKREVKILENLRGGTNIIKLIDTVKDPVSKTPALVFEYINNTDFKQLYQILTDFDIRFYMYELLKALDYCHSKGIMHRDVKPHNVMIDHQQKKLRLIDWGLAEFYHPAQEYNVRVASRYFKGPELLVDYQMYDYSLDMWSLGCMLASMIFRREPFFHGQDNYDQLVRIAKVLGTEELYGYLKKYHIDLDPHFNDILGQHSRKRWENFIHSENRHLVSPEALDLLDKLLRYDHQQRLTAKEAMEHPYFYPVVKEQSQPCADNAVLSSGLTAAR
In short: as §1

MAPK1(h) = MAPK1(h) (Homo sapiens, UniProt P27361)
Sequence of MAPK1(h) (P27361 whole entry): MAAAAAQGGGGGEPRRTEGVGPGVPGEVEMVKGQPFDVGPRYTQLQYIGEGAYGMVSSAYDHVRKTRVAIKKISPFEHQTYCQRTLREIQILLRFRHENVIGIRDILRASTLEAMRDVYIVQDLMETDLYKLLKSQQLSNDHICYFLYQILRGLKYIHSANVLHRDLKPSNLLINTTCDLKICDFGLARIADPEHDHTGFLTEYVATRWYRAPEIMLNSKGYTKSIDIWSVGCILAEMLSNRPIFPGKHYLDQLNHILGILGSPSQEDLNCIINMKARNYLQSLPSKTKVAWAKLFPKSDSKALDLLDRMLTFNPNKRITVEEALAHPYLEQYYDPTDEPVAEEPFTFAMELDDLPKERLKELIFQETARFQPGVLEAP
In short: as §1

Tie2(R849W)(h) = Tie2(R849W)(h) (Homo sapiens, UniProt Q02763, R849W)
In short: as §1

PAR-1Bα(h) = PAR-1Bα(h) (Homo sapiens, UniProt Q7KZI7)
Sequence of PAR-1Bα(h) (Q7KZI7 1-725 isoform Q7KZI7-4): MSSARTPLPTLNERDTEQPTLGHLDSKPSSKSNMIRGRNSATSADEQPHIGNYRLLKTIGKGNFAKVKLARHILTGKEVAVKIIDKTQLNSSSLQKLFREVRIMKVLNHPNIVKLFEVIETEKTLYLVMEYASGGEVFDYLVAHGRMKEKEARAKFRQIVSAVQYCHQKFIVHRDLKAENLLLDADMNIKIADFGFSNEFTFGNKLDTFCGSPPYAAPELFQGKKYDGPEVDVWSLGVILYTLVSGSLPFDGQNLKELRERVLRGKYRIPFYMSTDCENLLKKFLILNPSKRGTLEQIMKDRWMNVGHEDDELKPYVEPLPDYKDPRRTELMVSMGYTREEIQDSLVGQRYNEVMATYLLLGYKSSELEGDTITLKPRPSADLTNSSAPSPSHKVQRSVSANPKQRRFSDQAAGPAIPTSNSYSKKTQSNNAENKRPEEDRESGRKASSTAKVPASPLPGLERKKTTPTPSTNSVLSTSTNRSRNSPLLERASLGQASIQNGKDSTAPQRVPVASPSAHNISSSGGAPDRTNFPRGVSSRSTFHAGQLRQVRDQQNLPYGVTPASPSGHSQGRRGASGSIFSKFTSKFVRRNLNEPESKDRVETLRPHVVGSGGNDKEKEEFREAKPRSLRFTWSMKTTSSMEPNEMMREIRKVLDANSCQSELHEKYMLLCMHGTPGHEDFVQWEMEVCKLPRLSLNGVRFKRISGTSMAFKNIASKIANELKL
In short: as §1

GRK5(h) = target: T2, GRK5(h) (Homo sapiens, UniProt P34947)
T2 construct: purchased Millipore
In short: as §1

JAK3(h) = target: T3, JAK3(h) (Homo sapiens, UniProt P52333)
T3 construct: purchased Millipore
T3 sequence (P52333 1-1124): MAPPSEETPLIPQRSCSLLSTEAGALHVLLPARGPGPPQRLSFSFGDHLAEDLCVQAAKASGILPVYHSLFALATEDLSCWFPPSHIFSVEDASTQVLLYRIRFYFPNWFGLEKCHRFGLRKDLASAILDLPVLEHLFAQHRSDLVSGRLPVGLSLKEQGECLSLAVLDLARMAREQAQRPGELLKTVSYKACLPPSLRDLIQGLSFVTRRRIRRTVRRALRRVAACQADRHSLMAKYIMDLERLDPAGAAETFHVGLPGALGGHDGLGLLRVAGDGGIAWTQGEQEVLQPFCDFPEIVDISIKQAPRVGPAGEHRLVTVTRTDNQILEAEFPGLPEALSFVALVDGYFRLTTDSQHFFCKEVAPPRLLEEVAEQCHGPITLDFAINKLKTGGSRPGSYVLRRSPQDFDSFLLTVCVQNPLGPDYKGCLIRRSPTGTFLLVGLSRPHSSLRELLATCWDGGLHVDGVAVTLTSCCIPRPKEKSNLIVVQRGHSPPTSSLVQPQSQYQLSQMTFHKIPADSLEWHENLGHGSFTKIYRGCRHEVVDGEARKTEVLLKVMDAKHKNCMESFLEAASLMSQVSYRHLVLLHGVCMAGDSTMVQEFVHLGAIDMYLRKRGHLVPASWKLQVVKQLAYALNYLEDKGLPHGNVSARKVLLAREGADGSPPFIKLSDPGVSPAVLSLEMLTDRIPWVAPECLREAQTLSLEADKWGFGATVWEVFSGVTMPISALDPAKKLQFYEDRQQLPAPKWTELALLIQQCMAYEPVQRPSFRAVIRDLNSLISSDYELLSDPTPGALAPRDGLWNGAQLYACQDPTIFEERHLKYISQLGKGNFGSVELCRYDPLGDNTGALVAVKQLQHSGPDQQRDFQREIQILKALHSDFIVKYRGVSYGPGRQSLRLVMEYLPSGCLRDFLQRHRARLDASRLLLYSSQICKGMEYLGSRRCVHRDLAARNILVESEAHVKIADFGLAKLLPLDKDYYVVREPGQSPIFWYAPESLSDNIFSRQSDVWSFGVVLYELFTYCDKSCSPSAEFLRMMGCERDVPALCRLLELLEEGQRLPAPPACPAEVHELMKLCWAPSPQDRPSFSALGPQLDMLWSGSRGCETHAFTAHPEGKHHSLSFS
In short: as §1

HIPK3(h) = target: T4, HIPK3(h) (Homo sapiens, UniProt Q9H422)
T4 construct: purchased Millipore
T4 sequence (Q9H422 whole entry): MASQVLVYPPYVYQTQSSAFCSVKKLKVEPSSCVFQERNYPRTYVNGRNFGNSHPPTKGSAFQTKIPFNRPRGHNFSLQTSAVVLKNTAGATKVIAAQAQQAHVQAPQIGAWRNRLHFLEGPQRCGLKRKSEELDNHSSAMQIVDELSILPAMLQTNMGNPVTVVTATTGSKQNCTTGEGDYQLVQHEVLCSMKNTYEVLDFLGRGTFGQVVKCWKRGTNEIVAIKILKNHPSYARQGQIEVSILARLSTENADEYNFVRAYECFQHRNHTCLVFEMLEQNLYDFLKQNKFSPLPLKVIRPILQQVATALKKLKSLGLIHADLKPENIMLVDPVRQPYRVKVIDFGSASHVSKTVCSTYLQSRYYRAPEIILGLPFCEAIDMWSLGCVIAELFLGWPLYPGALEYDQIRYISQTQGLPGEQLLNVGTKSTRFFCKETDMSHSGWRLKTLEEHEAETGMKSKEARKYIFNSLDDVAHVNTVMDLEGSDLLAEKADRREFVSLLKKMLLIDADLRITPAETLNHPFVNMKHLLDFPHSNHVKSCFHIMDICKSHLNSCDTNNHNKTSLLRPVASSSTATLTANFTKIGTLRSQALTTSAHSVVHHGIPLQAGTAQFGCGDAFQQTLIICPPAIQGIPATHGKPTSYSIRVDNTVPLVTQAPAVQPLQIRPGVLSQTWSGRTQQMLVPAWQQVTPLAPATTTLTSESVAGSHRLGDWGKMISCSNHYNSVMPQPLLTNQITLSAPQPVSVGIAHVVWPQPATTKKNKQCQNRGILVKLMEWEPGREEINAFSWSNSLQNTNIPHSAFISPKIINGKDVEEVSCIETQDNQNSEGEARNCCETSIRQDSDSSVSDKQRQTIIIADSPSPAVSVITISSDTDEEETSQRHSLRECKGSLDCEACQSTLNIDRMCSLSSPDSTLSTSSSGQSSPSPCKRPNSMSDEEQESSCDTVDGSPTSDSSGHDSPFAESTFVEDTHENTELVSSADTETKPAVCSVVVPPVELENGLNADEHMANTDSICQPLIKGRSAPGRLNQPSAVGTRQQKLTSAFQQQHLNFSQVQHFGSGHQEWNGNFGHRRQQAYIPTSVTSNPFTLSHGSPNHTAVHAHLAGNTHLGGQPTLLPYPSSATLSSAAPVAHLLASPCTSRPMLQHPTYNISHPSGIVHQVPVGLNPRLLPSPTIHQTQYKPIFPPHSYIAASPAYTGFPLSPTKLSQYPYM
In short: as §1

Abl(H396P)(h) = Abl(H396P)(h) (Homo sapiens, UniProt P00519, H396P)
In short: as §1

EGFR(T790M)(h) = EGFR(T790M)(h) (Homo sapiens, UniProt P00533, T790M)
In short: as §1

Snk(h) = Snk(h) (Homo sapiens, UniProt Q9NYY3)
Sequence of Snk(h) (Q9NYY3 whole entry): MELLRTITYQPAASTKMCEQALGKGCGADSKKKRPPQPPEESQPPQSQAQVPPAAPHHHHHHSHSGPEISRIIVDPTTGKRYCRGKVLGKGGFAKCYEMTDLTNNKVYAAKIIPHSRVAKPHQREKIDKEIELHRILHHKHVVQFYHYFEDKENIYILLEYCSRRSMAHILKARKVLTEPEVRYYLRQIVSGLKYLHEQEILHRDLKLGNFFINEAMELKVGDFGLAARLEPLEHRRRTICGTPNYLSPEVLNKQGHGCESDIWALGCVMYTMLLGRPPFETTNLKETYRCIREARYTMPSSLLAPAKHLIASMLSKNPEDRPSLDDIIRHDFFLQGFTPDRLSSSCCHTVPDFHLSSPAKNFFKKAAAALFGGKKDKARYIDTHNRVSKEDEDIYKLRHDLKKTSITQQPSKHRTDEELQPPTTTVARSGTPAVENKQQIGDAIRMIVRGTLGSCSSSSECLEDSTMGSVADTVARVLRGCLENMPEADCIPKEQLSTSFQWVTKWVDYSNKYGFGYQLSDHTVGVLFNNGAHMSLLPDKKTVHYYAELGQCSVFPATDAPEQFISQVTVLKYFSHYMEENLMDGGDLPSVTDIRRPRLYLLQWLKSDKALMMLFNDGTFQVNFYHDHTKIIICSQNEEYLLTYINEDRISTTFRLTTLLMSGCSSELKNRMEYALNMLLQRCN
In short: as §1

Abl(M351T)(h) = Abl(M351T)(h) (Homo sapiens, UniProt P00519, M351T)
In short: as §1

MRCKα(h) = MRCKα(h) (Homo sapiens, UniProt Q5VT25)
In short: as §1

Lck(h) = Lck(h) (Homo sapiens, UniProt P06239)
In short: as §1

MKK7β(h) = target: T5, MKK7β(h) (Homo sapiens, UniProt O14733)
T5 sequence (O14733 1-419): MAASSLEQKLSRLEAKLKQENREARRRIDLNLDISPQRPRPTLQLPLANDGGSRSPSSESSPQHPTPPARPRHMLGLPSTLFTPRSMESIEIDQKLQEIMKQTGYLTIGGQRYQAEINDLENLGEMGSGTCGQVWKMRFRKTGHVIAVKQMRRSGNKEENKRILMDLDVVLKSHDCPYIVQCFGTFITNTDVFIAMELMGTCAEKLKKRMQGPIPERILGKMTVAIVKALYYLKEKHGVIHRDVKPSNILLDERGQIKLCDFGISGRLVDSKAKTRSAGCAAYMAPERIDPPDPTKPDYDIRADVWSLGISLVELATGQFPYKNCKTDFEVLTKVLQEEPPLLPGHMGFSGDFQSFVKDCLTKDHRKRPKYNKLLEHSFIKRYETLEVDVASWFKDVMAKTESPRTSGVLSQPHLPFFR
In short: as §1

JNK1α1(h) = target: T6, JNK1α1(h) (Homo sapiens, UniProt P45983)
T6 construct: purchased Millipore
T6 sequence (P45983 1-384 isoform P45983-2): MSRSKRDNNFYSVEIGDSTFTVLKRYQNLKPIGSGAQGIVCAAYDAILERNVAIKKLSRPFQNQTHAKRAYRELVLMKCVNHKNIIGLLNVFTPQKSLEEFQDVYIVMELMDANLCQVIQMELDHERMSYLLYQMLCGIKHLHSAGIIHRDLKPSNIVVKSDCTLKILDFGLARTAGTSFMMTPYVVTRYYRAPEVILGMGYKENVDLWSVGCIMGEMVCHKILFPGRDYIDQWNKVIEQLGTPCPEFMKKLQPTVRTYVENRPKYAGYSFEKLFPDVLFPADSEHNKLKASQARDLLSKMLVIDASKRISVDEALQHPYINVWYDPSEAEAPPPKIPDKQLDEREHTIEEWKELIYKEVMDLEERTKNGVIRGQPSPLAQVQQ
In short: as §1

Sequence | IGF-1R(h) % activity (IGF-1R(h)) [%] | PAK3(h) % activity (PAK3(h)) [%] | CK1γ3(h) % activity (CK1γ3(h)) [%] | CK2α2(h) % activity (CK2α2(h)) [%] | MAPK1(h) % activity (MAPK1(h)) [%] | Tie2(R849W)(h) % activity (Tie2(R849W)(h)) [%] | PAR-1Bα(h) % activity (PAR-1Bα(h)) [%] | GRK5(h) % activity (GRK5(h)) [%] | JAK3(h) % activity (JAK3(h)) [%] | HIPK3(h) % activity (HIPK3(h)) [%] | Abl(H396P)(h) % activity (Abl(H396P)(h)) [%] | EGFR(T790M)(h) % activity (EGFR(T790M)(h)) [%] | Snk(h) % activity (Snk(h)) [%] | Abl(M351T)(h) % activity (Abl(M351T)(h)) [%] | MRCKα(h) % activity (MRCKα(h)) [%] | Lck(h) % activity (Lck(h)) [%] | MKK7β(h) % activity (MKK7β(h)) [%] | JNK1α1(h) % activity (JNK1α1(h)) [%]
YARAAARQARAKALNRQLGVA (Mammalian) [MMI-0200] | 49 | 50 | 96 | 88 | 97 | 89 | 110 | 135 | – | – | – | – | – | – | – | – | – | –
HRRIKAWLKKIKALARQLGVAA (Mammalian) [MMI-0500] | – | – | – | – | – | – | 97 | – | 95 | 85 | 51 | 70 | 122 | 61 | 5 | 359 | – | –
KAFAKLAARLYRKALARQLGVAA [MMI-0400] | 90 | – | – | 96 | 100 | 108 | – | 131 | 122 | – | – | – | 131 | – | 97 | – | 94 | 98
FAKLAARLYRKALARQLGVAA [MMI-0300] | – | 140 | 125 | – | – | – | – | – | – | 93 | 101 | 100 | – | 90 | – | −2 | 100 | 97
